Earlier results, collected in PMC5803174.

Legend:
[1] = biological target: beta-cardiac myosin proximal S2 (Homo sapiens) (UniProt P12883)
[2] = biological target: beta-cardiac myosin short S1 (Homo sapiens) (UniProt P12883)

Substance	Kd [1]	Kd [2]
MyBP-C C1-C2 (from UniProt Q14896)	5 µM	–
cardiac MyBP-C (from UniProt Q14896)	–	17.5 µM
